{
  "source": "patent US20250312499A1",
  "about": "“KISSPEPTIN RECEPTOR (KISS1R) TARGETED THERAPEUTICS AND USES THEREOF” (priority 2024, published 2025)",
  "binders": {"B1": {"name": "Compound 123 (peptide)", "peptide": "{DOTA}-[dY][Ala(9-anthryl)]NTF[azaGly][Nle][Api(1-amidino)][4Pal]-NH2", "SMILES": "CCCC[C@H](NC(=O)NNC(=O)[C@H](Cc1ccccc1)NC(=O)[C@@H](NC(=O)[C@H](CC(N)=O)NC(=O)[C@H](Cc1c2ccccc2cc2ccccc12)NC(=O)[C@@H](Cc1ccc(O)cc1)NC(=O)CN1CCN(CC(=O)O)CCN(CC(=O)O)CCN(CC(=O)O)CC1)[C@@H](C)O)C(=O)NC1(C(=O)N[C@@H](Cc2ccncc2)C(N)=O)CCN(C(=N)N)CC1"}, "B2": {"name": "Compound 319 (peptide)", "peptide": "{DOTA-Ahx}-[dY][d2Nal]NTF[azaGly]L[X7][dW]-NH2", "SMILES": "CNC(=N)N1CCC(NC(=O)[C@H](CC(C)C)NC(=O)NNC(=O)[C@H](Cc2ccccc2)NC(=O)[C@@H](NC(=O)[C@H](CC(N)=O)NC(=O)[C@@H](Cc2ccc3ccccc3c2)NC(=O)[C@@H](Cc2ccc(O)cc2)NC(=O)CCCCCNC(=O)CN2CCN(CC(=O)O)CCN(CC(=O)O)CCN(CC(=O)O)CC2)[C@@H](C)O)(C(=O)N[C@H](Cc2c[nH]c3ccccc23)C(N)=O)CC1"}, "B3": {"name": "Compound 189 (peptide)", "peptide": "{DOTA-Ahx}-F[azaGly]L[X7]W-NH2", "SMILES": "CNC(=N)N1CCC(NC(=O)[C@H](CC(C)C)NC(=O)NNC(=O)[C@H](Cc2ccccc2)NC(=O)CCCCCNC(=O)CN2CCN(CC(=O)O)CCN(CC(=O)O)CCN(CC(=O)O)CC2)(C(=O)N[C@@H](Cc2c[nH]c3ccccc23)C(N)=O)CC1"}, "B4": {"name": "Compound 252 (peptide)", "peptide": "{HO(CH2CH2O)2CH2CH2CO}-K(DOTA)ETF[azaGly]L[X2][4Pal]-NH2", "SMILES": "Cc1ccc(CNCC(=O)N2CCC(NC(=O)[C@H](CC(C)C)NC(=O)NNC(=O)[C@H](Cc3ccccc3)NC(=O)[C@@H](NC(=O)[C@H](CCC(=O)O)NC(=O)[C@H](CCCCNC(=O)CN3CCN(CC(=O)O)CCN(CC(=O)O)CCN(CC(=O)O)CC3)NC(=O)CCOCCOCCO)[C@@H](C)O)(C(=O)N[C@@H](Cc3ccncc3)C(N)=O)CC2)cc1F"}, "B5": {"name": "Compound 3 (peptide)", "peptide": "{DOTA-Ahx}-FGL[Api(1-amidino)]W-NH2", "SMILES": "CC(C)C[C@H](NC(=O)CNC(=O)[C@H](Cc1ccccc1)NC(=O)CCCCCNC(=O)CN1CCN(CC(=O)O)CCN(CC(=O)O)CCN(CC(=O)O)CC1)C(=O)NC1(C(=O)N[C@@H](Cc2c[nH]c3ccccc23)C(N)=O)CCN(C(=N)N)CC1"}, "B6": {"name": "Compound 15 (peptide)", "peptide": "{DOTA}-[βAla][dN][dN][dE][dE][dN]F[azaGly]L[X2]W-NH2", "SMILES": "Cc1ccc(CNCC(=O)N2CCC(NC(=O)[C@H](CC(C)C)NC(=O)NNC(=O)[C@H](Cc3ccccc3)NC(=O)[C@@H](CC(N)=O)NC(=O)[C@@H](CCC(=O)O)NC(=O)[C@@H](CCC(=O)O)NC(=O)[C@@H](CC(N)=O)NC(=O)[C@@H](CC(N)=O)NC(=O)CCNC(=O)CN3CCN(CC(=O)O)CCN(CC(=O)O)CCN(CC(=O)O)CC3)(C(=O)N[C@@H](Cc3c[nH]c4ccccc34)C(N)=O)CC2)cc1F"}, "B7": {"name": "Compound 251 (peptide)", "peptide": "{HO(CH2CH2O)2CH2CH2CO}-K(DOTA)TF[azaGly]L[X2][4Pal]-NH2", "SMILES": "Cc1ccc(CNCC(=O)N2CCC(NC(=O)[C@H](CC(C)C)NC(=O)NNC(=O)[C@H](Cc3ccccc3)NC(=O)[C@@H](NC(=O)[C@H](CCCCNC(=O)CN3CCN(CC(=O)O)CCN(CC(=O)O)CCN(CC(=O)O)CC3)NC(=O)CCOCCOCCO)[C@@H](C)O)(C(=O)N[C@@H](Cc3ccncc3)C(N)=O)CC2)cc1F"}, "B8": {"name": "Compound 16 (peptide)", "peptide": "{DOTA}-[βAla][dN][dN][dK][dE][dN]F[azaGly]L[X2]W-NH2", "SMILES": "Cc1ccc(CNCC(=O)N2CCC(NC(=O)[C@H](CC(C)C)NC(=O)NNC(=O)[C@H](Cc3ccccc3)NC(=O)[C@@H](CC(N)=O)NC(=O)[C@@H](CCC(=O)O)NC(=O)[C@@H](CCCCN)NC(=O)[C@@H](CC(N)=O)NC(=O)[C@@H](CC(N)=O)NC(=O)CCNC(=O)CN3CCN(CC(=O)O)CCN(CC(=O)O)CCN(CC(=O)O)CC3)(C(=O)N[C@@H](Cc3c[nH]c4ccccc34)C(N)=O)CC2)cc1F"}, "B9": {"name": "Compound 49 (peptide)", "peptide": "{DOTA}-F[azaGly]L[X2]W-NH2", "SMILES": "Cc1ccc(CNCC(=O)N2CCC(NC(=O)[C@H](CC(C)C)NC(=O)NNC(=O)[C@H](Cc3ccccc3)NC(=O)CN3CCN(CC(=O)O)CCN(CC(=O)O)CCN(CC(=O)O)CC3)(C(=O)N[C@@H](Cc3c[nH]c4ccccc34)C(N)=O)CC2)cc1F"}, "B10": {"name": "Compound 199 (peptide)", "peptide": "{DOTA-Ahx}-TNRNFL[Api(1-amidino)]F-NH2", "SMILES": "CC(C)C[C@H](NC(=O)[C@H](Cc1ccccc1)NC(=O)[C@H](CC(N)=O)NC(=O)[C@H](CCCNC(=N)N)NC(=O)[C@H](CC(N)=O)NC(=O)[C@@H](NC(=O)CCCCCNC(=O)CN1CCN(CC(=O)O)CCN(CC(=O)O)CCN(CC(=O)O)CC1)[C@@H](C)O)C(=O)NC1(C(=O)N[C@@H](Cc2ccccc2)C(N)=O)CCN(C(=N)N)CC1"}},
  "note": "Numbered stars: 1 amine (or outer) side, 2 acyl side, 3 side chain; on linkers, the order of the positions; unused ones are H or OH. Square brackets hold non-standard residues; d marks the D form. Ends that are not written are not given here. * marks the point of attachment. X2 = 4‑amino‑1‑((3-fluoro-4-methylbenzyl)glycyl)piperidine‑4‑carboxylic acid, Cc1ccc(CN(CC(=O)N2CCC(N[*:1])(C(=O)[*:2])CC2)[*:3])cc1F; X7 = 4‑amino‑1‑(N-methylcarbamimidoyl)piperidine‑4‑carboxylic acid, CNC(=N)N1CCC(N[*:1])(C(=O)[*:2])CC1; Apc(4-OMe) = 4-aminopiperidine-4-carboxylic acid residue N1-acylated by a methoxy-bearing benzylglycyl; DOTA = O=C(O)CN1CCN(CC(=O)O)CCN(CC(=O)*)CCN(CC(=O)O)CC1; Ala(9-anthryl) = N[C@@H](Cc1c2ccccc2cc2ccccc12)C(=O)O; Api(1-amidino) = N=C(N)N1CCC(N)(C(=O)O)CC1; HO(CH2CH2O)2CH2CH2CO = O=C(CCOCCOCCO)*; d2Nal = N[C@H](Cc1ccc2ccccc2c1)C(=O)O; 4Pal = N[C@@H](Cc1ccncc1)C(=O)O; Nle = CCCC[C@H](N)C(=O)O; APM = not defined here; Ahx = NCCCCCC(=O)O; azaGly = NNC(=O)O; βAla = NCCC(=O)O",
  "data": [
    {"target": "human kisspeptin receptor (KISS1R) (human) (UniProt Q969F8)", "sequence (Q969F8 whole entry)": "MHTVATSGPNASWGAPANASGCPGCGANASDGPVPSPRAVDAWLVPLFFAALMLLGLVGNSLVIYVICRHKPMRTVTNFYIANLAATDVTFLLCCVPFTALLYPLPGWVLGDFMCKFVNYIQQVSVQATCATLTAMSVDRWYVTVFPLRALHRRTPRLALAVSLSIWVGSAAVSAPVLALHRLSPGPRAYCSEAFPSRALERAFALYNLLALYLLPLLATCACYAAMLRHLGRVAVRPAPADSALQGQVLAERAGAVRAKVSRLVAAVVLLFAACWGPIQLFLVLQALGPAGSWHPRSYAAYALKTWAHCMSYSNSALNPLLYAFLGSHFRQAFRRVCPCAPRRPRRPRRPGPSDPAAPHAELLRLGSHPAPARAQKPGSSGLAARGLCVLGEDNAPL", "assay": "radioligand competition, hKISS1R membranes; legend: C is >100 nM", "units": {"Ki": "µM"}, "values": [
      {"binder": "B1", "Ki": "> 0.1"},
      {"binder": "{DOTA-Ahx}-[dY][d2Nal]NTF[azaGly]L[4‑amino‑1‑((pyridin-4-ylmethyl)glycyl)piperidine‑4‑carboxylic acid][dW]-NH2", "note": "[Compound 370]", "Ki": "> 0.1"},
      {"binder": "{DOTA-Ahx}-[dY][d2Nal]NTF[azaGly]L[4‑amino‑1‑(((tetrahydro-2H-thiopyran-4-yl)methyl)glycyl)piperidine‑4‑carboxylic acid][dW]-NH2", "note": "[Compound 375]", "Ki": "> 0.1"},
      {"binder": "B2", "Ki": "> 0.1"}
    ]},
    {"target": "human kisspeptin receptor (KISS1R) (human), Q969F8", "sequence (Q969F8 whole entry)": "as above", "assay": "radioligand competition, hKISS1R membranes; legend: C is >100 nM", "units": {"Ki": "µM"}, "values": [
      {"binder": "B3", "Ki": "> 0.1"},
      {"binder": "B4", "Ki": "> 0.1"},
      {"binder": "B5", "Ki": "> 0.1"},
      {"binder": "B6", "Ki": "> 0.1"},
      {"binder": "B7", "Ki": "> 0.1"},
      {"binder": "B8", "Ki": "> 0.1"},
      {"binder": "{DOTA-APM}-F[azaGly]L[X2]H-NH2 (reading uncertain)", "note": "[Compound 248]", "Ki": "> 0.1"},
      {"binder": "B9", "Ki": "> 0.1"},
      {"binder": "ENTF[azaGly][dL][Apc(4-OMe)]F", "note": "[Compound 239]", "Ki": "> 0.1"},
      {"binder": "B10", "Ki": "> 0.1"}
    ]}
  ]
}
